Measured values taken from patent US6987168.
Values joined by “and” are separate entries in the source; they are usually repeats but may differ in a detail not shown here. Identical values can stand only once.

Legend:
Assay in all cases: cell-based or functional assay
plasmin = target: plasmin
[1] = target: recombinant human tryptase (Promega) (human) (UniProt Q15661); conditions: scale: % of the activity in the absence of inhibitor
trypsin = target: trypsin
tissue kallikrein = target: tissue kallikrein

Chain of UniProt Q15661 (Q15661 31-275): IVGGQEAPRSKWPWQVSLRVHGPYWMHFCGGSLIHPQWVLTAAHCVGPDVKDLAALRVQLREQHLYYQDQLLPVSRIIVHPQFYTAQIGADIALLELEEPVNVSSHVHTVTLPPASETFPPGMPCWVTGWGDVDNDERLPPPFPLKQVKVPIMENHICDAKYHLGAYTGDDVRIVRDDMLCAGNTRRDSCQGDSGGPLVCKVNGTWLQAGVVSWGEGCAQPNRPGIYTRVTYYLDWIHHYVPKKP

concentration corresponding with 50% plasmin inhibition (peptide release from resorufin-labelled casein) (plasmin) [µM]	concentration for 50% trypsin inhibition (peptide release from resorufin-labelled casein) (trypsin) [µM]	Substance	concentration corresponding with 50% plasmin inhibition (peptide release from resorufin-labelled casein); one of two values from two assumed molecular masses (12 kDa or 13.5 kDa) (plasmin)	residual catalytic activity of tryptase (n-α-benzoyl-DL-Arg-p-nitroanilide, absorbance at 405 nm) after preincubation with rTdPI [1]	concentration for 50% trypsin inhibition (peptide release from resorufin-labelled casein); one of two values from two assumed molecular masses (12 kDa or 13.5 kDa) (trypsin)	tissue kallikrein activity (n-benzoyl-Pro-Phe-Arg-pNA, absorbance at 410 nm); percent inhibition at 7.5 µM rTdPI (% inhibition at 7.5 µM) (tissue kallikrein)
		Recombinant tick-derived protease inhibitor protein (rTdPI), histidine-tagged	0.32 µM and 0.43 µM	33	0.044 µM and 0.033 µM	50
0.23	0.026	soybean trypsin inhibitor (from UniProt P01070 25-205)				
